This is an account of results in the FLAb antibody collection (doi:10.7554/elife.23156).

B1: scFv; the commonest letter at each place (parent)
chain 1: EVKLDETGGGLVQPGRPMKLSCVASGFTFSDYWMNWVRQSPEKGLEWVAQIRNKPYNYETYYSDSVKGRFTISRDDSKSSVYLQMNNLRVEDMGIYYCTGSYYGMDYWGQGTSVTVS
chain 2: DVVMTQTPLSLPVSLGDQASISCRSSQSLVHSNGNTYLRWYLQKPGQSPKVLIYKVSNRFSGVPDRFSGSGSGTDFTLKISRVEAEDLGVYFCSQSTHVPWTFGGGTKLEIK

The data set “fluorescein” covers variants of B1. In words: Kd (Tite-Seq). Particulars: with fluorescein; format: scFv 4-4-20, heavy + light.
In data set [1] the parent is B1. Nature of the data set: yeast surface expression (ratio to wild type); higher = more expressed. Conditions: format: scFv 4-4-20, heavy + light.

For chain 1 F29V D31E, the Kd with fluorescein is 1.47 µM. Also, in data set [1], the yeast surface expression was 0.753.

In the case of chain 1 F29M D31N Y32A, the Kd with fluorescein is 0.00606 µM. In addition, the yeast surface expression in data set [1] is 1.2.

With chain 1 F29C W36V, in the data set with fluorescein, the Kd was no less than 10 µM. Also, the yeast surface expression in data set [1] came to 0.635.

With chain 1 F29N S30D, the Kd with fluorescein is no less than 10 µM. The yeast surface expression in data set [1] was determined as 0.949.

With chain 1 F29N S30K, in the data set with fluorescein, the Kd worked out at 0.228 µM. Besides, the yeast surface expression in data set [1] came to 1.13.

For chain 1 F29N S30H, the Kd in the data set with fluorescein is no less than 10 µM. Moreover, the yeast surface expression in data set [1] is 0.954.

For chain 1 F29N S30Q, the Kd with fluorescein was 0.876 µM. Moreover, the yeast surface expression in data set [1] came out at 1.02.

Consider chain 1 F29N S30E, for which the Kd with fluorescein worked out at 0.0391 µM. In addition, the yeast surface expression in data set [1] was 1.07.

Regarding chain 1 F29L W33D W36S, in the data set with fluorescein, the Kd was no less than 10 µM. Also, in data set [1], the yeast surface expression was found to be 0.585.

For chain 1 F29G S30T N35R, the equilibrium dissociation constant (Kd) with fluorescein is no less than 10 µM. The yeast surface expression in data set [1] is 0.82.

As for chain 1 F29L M34K W36P, the Kd in the data set with fluorescein amounted to 0.228 µM. Besides, the yeast surface expression in data set [1] was determined as 0.61.

For chain 1 F29L M34C, the Kd with fluorescein was no less than 10 µM. In addition, in data set [1], the yeast surface expression is 0.745.

With chain 1 F29L M34W, the dissociation constant Kd in the data set with fluorescein is no less than 10 µM. The yeast surface expression in data set [1] worked out at 0.795.

Take chain 1 F29L M34D: the Kd with fluorescein is no less than 10 µM. For the same variant, the yeast surface expression in data set [1] was 0.656.

For chain 1 F29M D31I, the dissociation constant (Kd) with fluorescein was no less than 10 µM. Moreover, the yeast surface expression in data set [1] worked out at 0.518.

Regarding chain 1 F29M D31T, the Kd in the data set with fluorescein turned out to be 0.00746 µM. Moreover, in data set [1], the yeast surface expression worked out at 0.848.

Regarding chain 1 F29Q Y32V, the Kd with fluorescein is no less than 10 µM. For the same variant, in data set [1], the yeast surface expression turned out to be 0.848.

Turning to chain 1 F29Q Y32C, the Kd with fluorescein is 9.5 µM. Further, in data set [1], the yeast surface expression turned out to be 1.

Turning to chain 1 F29Q Y32L, the Kd in the data set with fluorescein is no less than 10 µM. Besides, the yeast surface expression in data set [1] was 0.881.

Consider chain 1 F29D Y32K W33Y, for which the Kd with fluorescein was 6.61 µM. Moreover, in data set [1], the yeast surface expression turned out to be 1.18.

In the case of chain 1 F29T Y32R, in the data set with fluorescein, the Kd turned out to be 1.14 µM. Moreover, in data set [1], the yeast surface expression amounted to 1.06.

Regarding chain 1 F29T Y32P, the Kd in the data set with fluorescein was no less than 10 µM. Moreover, the yeast surface expression in data set [1] stood at 0.901.

Turning to chain 1 F29N W33P, in the data set with fluorescein, the Kd was no less than 10 µM. Besides, the yeast surface expression in data set [1] was 0.333.

For the variant chain 1 F29Q W36T, the dissociation constant (Kd) with fluorescein is no less than 10 µM. In addition, in data set [1], the yeast surface expression is 0.359.

With chain 1 F29Q W36H, the Kd with fluorescein is no less than 10 µM. Further, in data set [1], the yeast surface expression was 0.405.

In the case of chain 1 F29P D31A M34A, in the data set with fluorescein, the Kd is no less than 10 µM. For the same variant, the yeast surface expression in data set [1] worked out at 0.567.

As to chain 1 F29D W33V, the Kd with fluorescein is no less than 10 µM. Further, the yeast surface expression in data set [1] was 0.87.

In the case of chain 1 F29D W33L, the Kd in the data set with fluorescein is no less than 10 µM. Moreover, the yeast surface expression in data set [1] was determined as 0.795.

Consider chain 1 F29D W33Y, for which, in the data set with fluorescein, the Kd is no less than 10 µM. Moreover, the yeast surface expression in data set [1] was 0.766.

chain 1 F29N S30T M34E: the Kd with fluorescein turned out to be 0.311 µM. The yeast surface expression in data set [1] is 1.73.

With chain 1 F29N S30Q N35K, the dissociation constant Kd with fluorescein was no less than 10 µM. Further, the yeast surface expression in data set [1] stood at 2.76.

For the variant chain 1 F29M Y32M, in the data set with fluorescein, the Kd was 0.0171 µM. The yeast surface expression in data set [1] was 1.21.

As to chain 1 F29T D31A, the Kd in the data set with fluorescein came out at 0.345 µM. The yeast surface expression in data set [1] amounted to 0.838.

For chain 1 F29T D31N, the Kd with fluorescein was determined as 0.0189 µM. Further, the yeast surface expression in data set [1] was determined as 1.01.

On to chain 1 F29T D31P, for which the equilibrium dissociation constant (Kd) with fluorescein is no less than 10 µM. For the same variant, the yeast surface expression in data set [1] stood at 1.06.

Regarding chain 1 F29D Y32E, the Kd in the data set with fluorescein was no less than 10 µM. Besides, the yeast surface expression in data set [1] was determined as 0.599.

For chain 1 F29D Y32C, in the data set with fluorescein, the Kd is no less than 10 µM. The yeast surface expression in data set [1] stood at 0.924.

Turning to chain 1 D106Y G109K, the Kd with fluorescein was no less than 10 µM. Also, in data set [1], the yeast surface expression came to 0.136.

For the variant chain 1 D106Y G109Q, in the data set with fluorescein, the Kd was no less than 10 µM. In addition, the yeast surface expression in data set [1] is 0.171.

With chain 1 D106Y G109D, the Kd with fluorescein is no less than 10 µM. In addition, in data set [1], the yeast surface expression came to 0.224.

Take chain 1 F29E N35I: the Kd with fluorescein was found to be 0.00672 µM. Also, in data set [1], the yeast surface expression came out at 0.276.

Take chain 1 F29E N35T: the Kd with fluorescein is no less than 10 µM. Moreover, the yeast surface expression in data set [1] was 0.578.

For chain 1 F29P M34C, the dissociation constant (Kd) in the data set with fluorescein is no less than 10 µM. In addition, the yeast surface expression in data set [1] was 0.755.

Take chain 1 F29D W36H: the Kd in the data set with fluorescein is no less than 10 µM. The yeast surface expression in data set [1] was found to be 0.505.

Consider chain 1 F29K W33R, for which the Kd with fluorescein amounted to 0.0692 µM. Further, the yeast surface expression in data set [1] is 0.639.

On to chain 1 D106Y, for which the equilibrium dissociation constant (Kd) with fluorescein was no less than 10 µM. Moreover, in data set [1], the yeast surface expression stood at 0.51.

As for chain 1 F29A S30D M34K, the Kd with fluorescein was no less than 10 µM. The yeast surface expression in data set [1] is 0.41.

Take chain 1 F29G S30K: in the data set with fluorescein, the Kd is no less than 10 µM. The yeast surface expression in data set [1] worked out at 1.04.

Regarding chain 1 F29G S30E, in the data set with fluorescein, the Kd is no less than 10 µM. The yeast surface expression in data set [1] stood at 1.

For the variant chain 1 F29G S30N, the Kd with fluorescein is no less than 10 µM. In addition, the yeast surface expression in data set [1] turned out to be 0.933.

chain 1 F29Q V37M: in the data set with fluorescein, the Kd was found to be 0.00239 µM. Further, the yeast surface expression in data set [1] was 1.09.

In the case of chain 1 F29Q V37A, the Kd with fluorescein is 5.66 µM. The yeast surface expression in data set [1] worked out at 0.847.

Turning to chain 1 F29L Y32F, the Kd with fluorescein was no less than 10 µM. Besides, the yeast surface expression in data set [1] was 0.72.

For chain 1 F29C D31Y, the dissociation constant Kd with fluorescein was no less than 10 µM. For the same variant, in data set [1], the yeast surface expression was found to be 0.522.

With chain 1 F29C D31M, in the data set with fluorescein, the Kd was no less than 10 µM. In addition, the yeast surface expression in data set [1] came out at 0.669.

With chain 1 F29S N35R, the Kd in the data set with fluorescein came out at 0.0434 µM. Further, in data set [1], the yeast surface expression was found to be 0.922.

As to chain 1 F29S N35Y, the Kd in the data set with fluorescein was 0.327 µM. The yeast surface expression in data set [1] was found to be 1.05.

For the variant chain 1 F29S N35H, the equilibrium dissociation constant (Kd) with fluorescein was no less than 10 µM. In addition, in data set [1], the yeast surface expression was found to be 0.836.

For orientation: Kd means the concentration at which binding is half-saturated.
